Measurements: patent US20100254988A1

Experiments:
[1] = biological target: human c-Met ECD (human) (UniProt P08581); assay: SPR (Biacore T100), antibody captured by anti-Fc gamma antibody, c-Met ECD as analyte, 25 C
[2] = biological target: c-Met receptor on OVCAR-8 cells (human) (UniProt P08581); assay: cell-based or functional assay

Work on “BsAB02, trivalent bispecific <ErbB-2-c-Met> antibody (full length trastuzumab with one single chain Fab fragment of c-Met 5D5 (humanized) at the C-terminus of the knob heavy chain) (bispecific antibody)” yielded a Kd [1] of 8.2 nM, a % Internalization of c-Met after 1 hour on OVCAR-8 cells (=100-% antibody on cell surface) [2] of -7% and a % c-Met receptor on OVCAR-8 cell surface measured after 1 hour [2] of 107%.
